In assay [1] the target is Cpn60 from Pseudoalteromonas haloplanktis (Pseudoalteromonas haloplanktis).
The target is the same in assay [2]. Put plainly: native gel or EMSA; native PAGE of purified proteins, Coomassie brilliant blue staining. Background: A gel shift assay detects complexes by their altered migration in electrophoresis.
The target is the same in assay [3]. The assay is described as follows: SEC; analytical gel filtration, Superdex 75 GL (10/300), buffer C (20 mM MOPS pH 7.2, 150 mM KCl, 5 mM MgCl2), run at 5 °C, in the absence or presence of 1 mM ATP. For orientation: Size exclusion chromatography separates by hydrodynamic size, large species first.
Assay [4] has the same target. Put plainly: negative-stain electron microscopy; 0.125 µM Cpn60 in buffer C preincubated at 5 °C or 25 °C; where indicated 1 mM ATP, 1 mM ADP and 0.375 µM Cpn10; 1% uranyl acetate.
Assay [5] concerns the target single-ring SR-GroEL (Escherichia coli) (UniProt P0A6F5). Put plainly: SEC; analytical gel filtration, Superdex 75 GL (10/300), buffer C (20 mM MOPS pH 7.2, 150 mM KCl, 5 mM MgCl2), run at 5 °C, in the absence or presence of 1 mM ATP.
In the next assay the target is T1, Escherichia coli GroEL (Escherichia coli, UniProt P0A6F5 1-548, fluorophore from the NT-647-NHS labeling kit (in the MST measurements only)).
T1 construct: GroEL (Cpn60) of Escherichia coli; Tetradecamer (MW 800 kDa); also called Ec GroEL; Ec chaperonin; source: E. coli, purified as described (Weissman et al. 1995; Hayer-Hartl et al. 1996; Kusmiercyk and Martin 2000); copies: 14
T1 sequence (P0A6F5 whole entry): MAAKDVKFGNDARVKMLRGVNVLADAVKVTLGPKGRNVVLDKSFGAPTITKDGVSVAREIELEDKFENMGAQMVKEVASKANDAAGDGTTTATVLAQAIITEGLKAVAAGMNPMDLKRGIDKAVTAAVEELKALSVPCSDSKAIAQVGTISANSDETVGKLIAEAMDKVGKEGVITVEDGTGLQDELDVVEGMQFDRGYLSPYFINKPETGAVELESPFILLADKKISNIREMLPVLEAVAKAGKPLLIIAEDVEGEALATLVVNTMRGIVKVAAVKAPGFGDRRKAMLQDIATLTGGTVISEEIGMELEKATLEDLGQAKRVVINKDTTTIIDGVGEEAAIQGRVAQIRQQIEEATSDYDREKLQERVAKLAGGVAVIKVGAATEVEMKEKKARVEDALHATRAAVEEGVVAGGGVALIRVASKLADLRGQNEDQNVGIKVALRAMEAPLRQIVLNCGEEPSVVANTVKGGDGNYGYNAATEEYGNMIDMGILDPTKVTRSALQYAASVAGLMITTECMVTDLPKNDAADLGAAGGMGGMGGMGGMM
The assay is described as follows: MST; Cpn60 labelled with NT-647-NHS, serial dilutions of Cpn10 in buffer C with 1 mM ADP, 25 °C, Monolith NT.115, MST power 80%. The settings on record: both partners purified.

Assay [6] deals with Cpn60 from Pseudoalteromonas haloplanktis (Pseudoalteromonas haloplanktis). The assay is described as above.

What is called stoichiometry N is the number of molecules, sites or subunits per partner or assembly. As a reminder, the Kd is the free concentration of one partner at which half of the binding sites on the other are occupied at equilibrium, for simple one-to-one binding.

As to “α-casein (from UniProt P02662 16-214) (natural protein)”, the stimulation of Ph Cpn60 ATPase by a five-fold molar excess of α-casein (10 °C and 25 °C, with or without Ph Cpn10) in assay [1] came to 3 fold.
For the molecule “Cpn60 from Pseudoalteromonas haloplanktis (natural protein)”, the stoichiometry N in assay [2], in assay [3] and in assay [4] was 14 in each case.
Turning to “single-ring SR-GroEL (from UniProt P0A6F5 1-548) (natural protein)”, in assay [5], the stoichiometry N was determined as 7.

B1: Escherichia coli GroES (natural protein, UniProt P0A6F9 1-97, looked up)
chain: MNIRPLHDRVIVKRKEVETKSAGGIVLTGSAAAKSTRGEVLAVGNGRILENGEVKPLDVKVGDIVIFNDGYGVKSEKIDNEEVLIMSESDILAIVEA
notes: GroES (Cpn10) of Escherichia coli; also called Ec GroES; source: E. coli, purified as described (Weissman et al. 1995; Hayer-Hartl et al. 1996; Kusmiercyk and Martin 2000)
In turn, B1 registered a Kd with Escherichia coli GroEL of 8.8 ± 1.8 nM.

B2: Cpn10 from Pseudoalteromonas haloplanktis (natural protein)
chain: MNIRPLHDRVIVKRLEEETKSAGGIVLTGSAAEKSTRGEVVAVGNGRTLDNGDVRALEVKVGDTVLFGSYVEKAEKIEGQEYLIMREDNILGIVG
Consider B2, for which, in assay [6], the Kd turned out to be 352 nM. This counts as sub-micromolar.
